Experimental data from US12551583B2, “Radiolabeled ligands for targeted PET/SPECT imaging and methods of their use” (MEMORIAL SLOAN KETTERING CANCER CENTER, priority 2016, dated 2026).

Tests used:
[1] = tested on: 4T1 orthotopic tumor-bearing BALB/c mice; assay: in vivo; conditions: mouse
Method in brief: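 Female BALB/c mice bearing orthotopic 4T1 allografts (1×10^6 cells in mammary fat pad), used 5-9 days post-implant for lower tumoral pH. Radiolabelled NOTA-pHLIP given i.v., 25-100 μCi/mouse for biodistribution; organs gamma-counted at 0.5-48 h p.i. Values are %ID/g, corrected for injected mass and activity, mean ± SD.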

tumor = conditions: in vivo; cited from earlier work

Compound: CC(C)C[C@@H](NC(=O)[C@@H](CCC(=O)O)NC(=O)[C@@H](CC(C)C)NC(=O)[C@@H](CC(C)C)NC(=O)[C@@H](CC(C)C)NC(=O)[C@H](NC(=O)[C@@H](CCC(=O)O)NC(=O)[C@H](NC(=O)[C@H]1CCCN1C(=O)[C@@H](Cc1ccccc1)NC(=O)[C@@H](CC(C)C)NC(=O)[C@@H](Cc1c[nH]c2ccccc12)NC(=O)[C@@H](CCC(=O)O)NC(=O)[C@@H](CC(C)C)NC(=O)[C@@H](Cc1ccc(O)cc1)NC(=O)[C@@H](CCCNC(=N)N)NC(=O)[C@@H](C)NC(=O)[C@@H](Cc1c[nH]c2ccccc12)NC(=O)[C@H]1CCCN1C(=O)[C@@H](CC(N)=O)NC(=O)[C@@H](CCC(N)=O)NC(=O)[C@@H](CCC(=O)O)NC(=O)[C@@H](CCC(=O)O)NC(=O)[C@@H](CS)NC(=O)[C@@H](C)NC(=S)Nc1ccc(CC2CN(CC(=O)O)CCN(CC(=O)O)CCN2CC(=O)O)cc1)[C@H](C)O)[C@H](C)O)C(=O)O (single isomer, unassigned) [^64Cu-NOTA-Var7, metal not drawn]
- kidneys-to-large intestine ratio [1]: 0.32±0.07
- biodistribution, Blood ([1]; iv, 4 h): 0.833 ± 0.068 % ID/g
- biodistribution, Bone ([1]; iv, 4 h): 0.229 ± 0.093 % ID/g
- biodistribution, Brain ([1]; iv, 4 h): 0.042 ± 0.004 % ID/g
- biodistribution, Heart ([1]; iv, 4 h): 0.35 ± 0.04 % ID/g
- biodistribution, Kidneys ([1]; iv, 4 h): 6.790 ± 0.461 % ID/g
- biodistribution, L. intestine ([1]; iv, 4 h): 7.78 ± 0.61 % ID/g
- biodistribution, Liver ([1]; iv, 4 h): 0.739 ± 0.041 % ID/g
- biodistribution, Lungs ([1]; iv, 4 h): 0.996 ± 0.066 % ID/g
- biodistribution, Muscle ([1]; iv, 4 h): 0.118 ± 0.025 % ID/g
- biodistribution, Pancreas ([1]; iv, 4 h): 0.198 ± 0.043 % ID/g
- biodistribution, S. intestine ([1]; iv, 4 h): 0.307 ± 0.077 % ID/g
- biodistribution, Skin ([1]; iv, 4 h): 0.563 ± 0.145 % ID/g
- biodistribution, Spleen ([1]; iv, 4 h): 0.279 ± 0.016 % ID/g
- biodistribution, Stomach ([1]; iv, 4 h): 0.300 ± 0.076 % ID/g
- biodistribution, Tumor (4T1 tumoral uptake) ([1]; iv, 4 h): 0.546 ± 0.075 % ID/g
- overall tumor uptake (tumor): 1.36±0.43 % ID/g
